From the supplement of paper PMC9112550, “Optimization of the antimicrobial peptide Bac7 by deep mutational scanning” (BMC Biology, 2022)

System: Escherichia coli TOP10
Experiment: shrunken log2 fold change of peptide-encoding DNA abundance (4.5 h post-induction vs induction); higher = less antimicrobial activity (less host growth inhibition)
Settings: time post-induction: 4.5 h; library: site-saturation at positions 5, 18, 19, 20
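Also: peptides expressed intracellularly from a pBAD plasmid library in pooled LB shake-flask culture, induced with 0.3% L-arabinose, DNA abundance read by NGS, three biological replicates, DESeq2 with apeglm shrinkage.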

RRIRVRPPRLPRPRPRPWWNPRP
shrunken log2 fold change: -0.0063

RRIRMRPPRLPRPRPRPEQFPRP
shrunken log2 fold change: 0.216

RRIRPRPPRLPRPRPRPDVWPRP
shrunken log2 fold change: 0.266

RRIRMRPPRLPRPRPRPCFSPRP
shrunken log2 fold change: -0.141

RRIRLRPPRLPRPRPRPQHYPRP
shrunken log2 fold change: -0.761

RRIRGRPPRLPRPRPRPPHSPRP
shrunken log2 fold change: 0.568

RRIRSRPPRLPRPRPRPRWKPRP
shrunken log2 fold change: 0.206

RRIRVRPPRLPRPRPRPVKGPRP
shrunken log2 fold change: -0.0226

RRIRNRPPRLPRPRPRPENWPRP
shrunken log2 fold change: 0.0185

RRIRERPPRLPRPRPRPNVVPRP
shrunken log2 fold change: 0.0366

RRIRERPPRLPRPRPRPGYIPRP
shrunken log2 fold change: -0.709

RRIRNRPPRLPRPRPRPNKCPRP
shrunken log2 fold change: -0.466

RRIRYRPPRLPRPRPRPPISPRP
shrunken log2 fold change: -0.501

RRIRARPPRLPRPRPRPIGKPRP
shrunken log2 fold change: -0.00841

RRIRHRPPRLPRPRPRPTMCPRP
shrunken log2 fold change: -0.00396

RRIRVRPPRLPRPRPRPRQAPRP
shrunken log2 fold change: 0.224

RRIRWRPPRLPRPRPRPDNYPRP
shrunken log2 fold change: -0.00844

RRIRGRPPRLPRPRPRPFEAPRP
shrunken log2 fold change: 0.727

RRIRLRPPRLPRPRPRPDQHPRP
shrunken log2 fold change: -0.0962

RRIRKRPPRLPRPRPRPMSYPRP
shrunken log2 fold change: -0.0167

RRIRVRPPRLPRPRPRPSTIPRP
shrunken log2 fold change: -0.136

RRIRMRPPRLPRPRPRPICNPRP
shrunken log2 fold change: -0.0126

RRIRIRPPRLPRPRPRPCVQPRP
shrunken log2 fold change: 1.47

RRIRLRPPRLPRPRPRPMNSPRP
shrunken log2 fold change: -0.406

RRIRPRPPRLPRPRPRPATHPRP
shrunken log2 fold change: 0.0822

RRIRGRPPRLPRPRPRPMNRPRP
shrunken log2 fold change: 0.022

RRIRMRPPRLPRPRPRPRRVPRP
shrunken log2 fold change: 1.3

RRIRHRPPRLPRPRPRPGTLPRP
shrunken log2 fold change: -0.259

RRIRVRPPRLPRPRPRPSPCPRP
shrunken log2 fold change: -0.145

RRIRKRPPRLPRPRPRPVSNPRP
shrunken log2 fold change: -0.212

RRIRHRPPRLPRPRPRPTMRPRP
shrunken log2 fold change: 0.402

RRIRFRPPRLPRPRPRPEEEPRP
shrunken log2 fold change: 0.78

RRIRWRPPRLPRPRPRPRKAPRP
shrunken log2 fold change: 0.285

RRIRVRPPRLPRPRPRPGRKPRP
shrunken log2 fold change: -0.0493

RRIRTRPPRLPRPRPRPMEVPRP
shrunken log2 fold change: 0.117

RRIRFRPPRLPRPRPRPCPFPRP
shrunken log2 fold change: -0.988

RRIRFRPPRLPRPRPRPYSYPRP
shrunken log2 fold change: -0.268

RRIRTRPPRLPRPRPRPGYEPRP
shrunken log2 fold change: -0.0417

RRIRRRPPRLPRPRPRPWDLPRP
shrunken log2 fold change: -0.04

RRIRHRPPRLPRPRPRPNPYPRP
shrunken log2 fold change: -0.161

RRIRFRPPRLPRPRPRPVCRPRP
shrunken log2 fold change: -0.0676

RRIRTRPPRLPRPRPRPPWRPRP
shrunken log2 fold change: 0.747

RRIRARPPRLPRPRPRPFLVPRP
shrunken log2 fold change: -0.205

RRIRQRPPRLPRPRPRPAGKPRP
shrunken log2 fold change: 0.0246

RRIRGRPPRLPRPRPRPMWFPRP
shrunken log2 fold change: 0.185

RRIRNRPPRLPRPRPRPIFKPRP
shrunken log2 fold change: -0.174

RRIRMRPPRLPRPRPRPADMPRP
shrunken log2 fold change: 0.728

RRIRTRPPRLPRPRPRPKYEPRP
shrunken log2 fold change: -0.144

RRIRMRPPRLPRPRPRPAILPRP
shrunken log2 fold change: 0.467

RRIRERPPRLPRPRPRPMTTPRP
shrunken log2 fold change: -0.023

RRIRDRPPRLPRPRPRPYPGPRP
shrunken log2 fold change: -0.0524

RRIRWRPPRLPRPRPRPKCVPRP
shrunken log2 fold change: -0.0153

RRIRVRPPRLPRPRPRPSEYPRP
shrunken log2 fold change: -0.418

RRIRARPPRLPRPRPRPQFEPRP
shrunken log2 fold change: -0.102

RRIRQRPPRLPRPRPRPEYDPRP
shrunken log2 fold change: -0.168

RRIRTRPPRLPRPRPRPIGLPRP
shrunken log2 fold change: -0.115

RRIRVRPPRLPRPRPRPGKLPRP
shrunken log2 fold change: 0.126

RRIRGRPPRLPRPRPRPKMAPRP
shrunken log2 fold change: 0.0451

RRIRERPPRLPRPRPRPKMFPRP
shrunken log2 fold change: -0.000277

RRIRIRPPRLPRPRPRPKFLPRP
shrunken log2 fold change: -0.537

RRIRDRPPRLPRPRPRPDERPRP
shrunken log2 fold change: 0.0336

RRIRNRPPRLPRPRPRPAYCPRP
shrunken log2 fold change: -0.0951

RRIRMRPPRLPRPRPRPDILPRP
shrunken log2 fold change: 1.45

RRIRQRPPRLPRPRPRPYEPPRP
shrunken log2 fold change: 0.00408

RRIRPRPPRLPRPRPRPTCYPRP
shrunken log2 fold change: -0.127

RRIRRRPPRLPRPRPRPPQSPRP
shrunken log2 fold change: 0.846

RRIRWRPPRLPRPRPRPIIEPRP
shrunken log2 fold change: -0.273

RRIRHRPPRLPRPRPRPLTRPRP
shrunken log2 fold change: 0.0261

RRIRWRPPRLPRPRPRPHTKPRP
shrunken log2 fold change: 0.0624

RRIRARPPRLPRPRPRPYCWPRP
shrunken log2 fold change: -0.258

RRIRKRPPRLPRPRPRPIVAPRP
shrunken log2 fold change: 0.399

RRIRVRPPRLPRPRPRPEWNPRP
shrunken log2 fold change: -0.272

RRIRTRPPRLPRPRPRPASNPRP
shrunken log2 fold change: -0.00255

RRIRSRPPRLPRPRPRPIEQPRP
shrunken log2 fold change: -0.0141

RRIRKRPPRLPRPRPRPICLPRP
shrunken log2 fold change: 0.141

RRIRRRPPRLPRPRPRPLNRPRP
shrunken log2 fold change: -0.169

RRIRIRPPRLPRPRPRPHHSPRP
shrunken log2 fold change: -0.46

RRIRVRPPRLPRPRPRPQTDPRP
shrunken log2 fold change: -0.27

RRIRGRPPRLPRPRPRPLIWPRP
shrunken log2 fold change: 0.602

RRIRYRPPRLPRPRPRPWLQPRP
shrunken log2 fold change: -0.216

RRIRNRPPRLPRPRPRPYQEPRP
shrunken log2 fold change: -0.00962

RRIRKRPPRLPRPRPRPMFCPRP
shrunken log2 fold change: 0.0792

RRIRWRPPRLPRPRPRPDVSPRP
shrunken log2 fold change: 0.265

RRIRMRPPRLPRPRPRPWHKPRP
shrunken log2 fold change: -0.00776

RRIRLRPPRLPRPRPRPSWGPRP
shrunken log2 fold change: 0.00407

RRIRRRPPRLPRPRPRPHKYPRP
shrunken log2 fold change: -0.192

RRIRARPPRLPRPRPRPYTLPRP
shrunken log2 fold change: -0.213

RRIRKRPPRLPRPRPRPPQHPRP
shrunken log2 fold change: 0.5

RRIRRRPPRLPRPRPRPIGGPRP
shrunken log2 fold change: 0.205

RRIRQRPPRLPRPRPRPNCGPRP
shrunken log2 fold change: 0.0184

RRIRYRPPRLPRPRPRPHAYPRP
shrunken log2 fold change: -0.0226

RRIRMRPPRLPRPRPRPKIGPRP
shrunken log2 fold change: -0.0597

RRIRKRPPRLPRPRPRPETHPRP
shrunken log2 fold change: 0.736

RRIRHRPPRLPRPRPRPPISPRP
shrunken log2 fold change: -0.378

RRIRSRPPRLPRPRPRPTYYPRP
shrunken log2 fold change: -0.42

RRIRSRPPRLPRPRPRPASQPRP
shrunken log2 fold change: 0.0365

RRIRVRPPRLPRPRPRPGYEPRP
shrunken log2 fold change: 0.232

RRIRGRPPRLPRPRPRPICLPRP
shrunken log2 fold change: 0.277

RRIRHRPPRLPRPRPRPMIAPRP
shrunken log2 fold change: -0.0185

RRIRMRPPRLPRPRPRPKFFPRP
shrunken log2 fold change: 0.0606

RRIRFRPPRLPRPRPRPDFVPRP
shrunken log2 fold change: -0.0292

RRIRRRPPRLPRPRPRPNGAPRP
shrunken log2 fold change: -0.151

RRIRSRPPRLPRPRPRPQSQPRP
shrunken log2 fold change: -0.258

RRIRARPPRLPRPRPRPLYIPRP
shrunken log2 fold change: -0.293

RRIRWRPPRLPRPRPRPNESPRP
shrunken log2 fold change: -0.0337

RRIRMRPPRLPRPRPRPATEPRP
shrunken log2 fold change: 0.996

RRIRARPPRLPRPRPRPLMQPRP
shrunken log2 fold change: 0.223

RRIRGRPPRLPRPRPRPDCHPRP
shrunken log2 fold change: 0.217

RRIRPRPPRLPRPRPRPPGDPRP
shrunken log2 fold change: 0.567

RRIRYRPPRLPRPRPRPAEGPRP
shrunken log2 fold change: -0.169

RRIRPRPPRLPRPRPRPRETPRP
shrunken log2 fold change: 0.574

RRIRYRPPRLPRPRPRPMFIPRP
shrunken log2 fold change: -0.908

RRIRDRPPRLPRPRPRPQVWPRP
shrunken log2 fold change: 0.0447

RRIRARPPRLPRPRPRPLGAPRP
shrunken log2 fold change: 0.726

RRIRDRPPRLPRPRPRPAGIPRP
shrunken log2 fold change: -0.00461

RRIRWRPPRLPRPRPRPRLFPRP
shrunken log2 fold change: 0.432

RRIRTRPPRLPRPRPRPFYKPRP
shrunken log2 fold change: -0.6

RRIRNRPPRLPRPRPRPNQYPRP
shrunken log2 fold change: -0.712

RRIRQRPPRLPRPRPRPCQNPRP
shrunken log2 fold change: -0.173

RRIRHRPPRLPRPRPRPDELPRP
shrunken log2 fold change: -0.000777

RRIRLRPPRLPRPRPRPNFYPRP
shrunken log2 fold change: -0.141

RRIRARPPRLPRPRPRPGCWPRP
shrunken log2 fold change: 0.965

RRIRSRPPRLPRPRPRPKMMPRP
shrunken log2 fold change: -0.214

RRIRTRPPRLPRPRPRPTGLPRP
shrunken log2 fold change: -0.0841

RRIRQRPPRLPRPRPRPILFPRP
shrunken log2 fold change: 0.0255
